Assay results taken from patent publication US8791249B2, “Nucleic acid encoding humanized c-kit antibody” (Amgen Inc., priority 2006, dated 2014).
Where “and” joins values, the source holds several entries; their conditions need not be identical. Equal values may be shown once. Entries after “also recorded” stand apart in the source; their conditions may differ.

Columns and labels:
[1] = Exposure after repeated once-weekly dosing; type: in vivo, African green monkeys; details: preliminary exposure data
Source text: Based on preliminary exposure data of SR-1 and humanized antibodies in African green monkeys after repeated once-weekly dosing, humanized antibodies achieved higher exposures compared to SR-1. […] 1992; 35(3): 165-74.

[2] = Effector function (CDC, ADCC); type: cell-based
Source text: (§1) In contrast, binding of SR-1 IgG1 and IgG4β isotypes was detected presumably to the high affinity FcγRI. […] Aglycosylated chimeric mouse/human IgG1 antibodies have been reported to […] (Hybridoma. 1991 April; 10(2):211-7) and so these desired activities of hSR-1 aIgG1 are not expected.

[3] = Human dose projection (body surface area-based dose conversion); details: equivalent dosing regimen, preliminary estimation
Method: The minimal effective dose in the wound PD model of mast cell expansion is <0.3 mg/Kg administered once weekly for 2 weeks in monkeys. Based on a body surface area-based dose conversion, the minimal effective dose in human is projected to be <0.1 mg/Kg with an equivalent dosing regiment. However, this is a preliminary estimation as the PK and the pharmacodynamic relationship between the degree and duration of c-kit inhibition in human by hSR-1 aIgG1 and clinical endpoints are unknown at this time. A more accurate projection will be made when more pharmacokinetic and pharmacodynamic data are available.

[4] = system: c-Kit dimer; test: Biacore binding to c-Kit dimer versus soluble monomer; set-up: species or system human
Source text: Activation of c-Kit upon binding by stem cell factor (SCF) leads to dimerization/oligomerization, autophosphorylation and receptor internalization, most likely through a clathrin-dependent pathway. The SR-1 monoclonal antibody binds the c-Kit dimer with 1000-fold higher affinity compared to the soluble c-Kit extra-cellular domain monomer as determined by Biacore.
Carbohydrates present on a glycoprotein can influence biological and functional properties. […] This is an important characteristic not predicted to be translated with certainty with the humanization and as the soluble c-Kit monomer is less likely to act as a sink for the antibody in vivo.

[5] = system: U-937 cells expressing Fcγ receptor I=CD64, Fcγ receptor II=CD32 and Fcγ receptor III=CD16; test: Non-specific FcR binding to U-937 cells; type: cell-based
Source text: as §1

[6] = molecular target: T1, c-Kit (Homo sapiens, UniProt P10721); test: Cell based assays of c-Kit signaling (functional potency, agonism, internalization); set-up: endogenous in cells; host or cells: MO7e cells; cultured human mast cells derived from bone marrow CD34+ cells; primary human CD34+ CD117+ bone marrow cells; UT-7 cells; details: all cell based assays tested
Source text: These properties are potentially undesirable since the aim of a therapeutic strategy is to apoptotically deplete mast cells and precurors by blocking the survival SCF signal and to avoid mast cell activation that could lead to anaphylactoid reactions in vivo. When the mouse SR-1 CDR regions were inserted in the human IgG1 framework, affinity and functional potency were also maintained, but this background is less desirable due to the complement activation and cell mediated cytotoxicity often found with this isotype of antibody.
The aglycosylated IgG1 isotype was chosen to avoid effector function and cell killing through bystander effects. […] It also depletes mast cells in vivo as expected.

[7] = system: wound activated skin mast cells; test: Wound pharmacodynamic model of mast cell expansion in monkey; details: for Fold UT-7 IC50 (Ctrough) / Inhibition of activated skin mast cells: day 14; for minimal effective dose in the wound PD model: once weekly for 2 weeks in monkeys; for inhibition of wound activated expansion of mast cells: 3 weeks
[8] = system: c-Kit in MO7e cells; test: SCF-mediated c-Kit phosphorylation and internalization in MO7e cells; type: cell-based
[9] = system: basal lung and colon mast cells; test: Depletion of basal lung and colon mast cells in monkey; type: in vivo
Method: (§2) The SR-1 monoclonal antibody was selected based on its equivalent functional potency at human and monkey c-Kit in the CD34+ bone marrow cell CFU assay (inhibition at 1.0 ug/mL), and its monkey PK.
[…] […] For practical reasons, basal pulmonary mast cells were evaluated on day 28 at the time of necropsy and the termination of the study.

[10] = system: human CD34+, CD 117+ (c-Kit) bone marrow cells; test: CD34+ bone marrow cell CFU assay (SCF/GM-CSF colony formation), human; type: cell-based
Method: as §2

[11] = Preliminary PK study after single IV or SC administration
Method: A preliminary PK study was conducted to compare hSR-1 IgG2 and hSR-1 aIgG1 PK in male cynomolgus monkeys after a single IV or SC administration at 3 mg/kg.

[12] = In vivo tolerability in non-human primates; details: up to 30 mg/kg once weekly for 4 weeks or up to 150 mg/kg subcutaneously once weekly for 2 weeks
[13] = system: Cultured human mast cells derived from bone marrow CD34+ cells; test: Cultured human mast cell assays (survival, c-Kit phosphorylation, aggregation); type: cell-based
[14] = system: melanocytes; test: Melanogenesis (hair pigmentation after depilation) in dose-ranging study; type: in vivo, monkeys
Method: (§3) SR-1 was used in dose-ranging studies from 3 to 30 mg/Kg administered once weekly for 4 weeks to determine the exposures required to inhibit hematopoiesis, spermatogenesis and active melanogenesis. A full blood panel including cell differentials was performed on blood samples taken at baseline, day 4, 7, 14, 21 and 28 after the start of the study. Analysis of freshly isolated blood samples was performed at the Queen Elizabeth Hospital Clinical Hematology lab, Barbados.
(§4) The effect of 3-30 mpk administered once weekly for 4 weeks on melanogenesis was also examined since there may be utility in melanoma. To assess the effects on activated melanocytes which may better reflect a disease state, hair was depilated to activate melanogenesis. […] In the 10 mg/Kg cohort, SR-1 exposures were >8000-fold the UT-7 IC50.

[15] = system: monkey c-Kit; test: CD34+ bone marrow cell CFU assay, monkey; type: cell-based; details: 1.0 ug/mL
Method: as §2

[16] = molecular target: T1, c-Kit; set-up: endogenous in cells; host or cells: MO7e cells; cultured human mast cells derived from bone marrow CD34+ cells; primary human CD34+ CD117+ bone marrow cells; UT-7 cells; details: Broudy, J Cell Physiol. 1994; cited from earlier work
[17] = system: spermatogenesis; test: Spermatogenesis in dose-ranging study; type: in vivo, monkey
[18] = system: hematopoiesis; test: Hematopoiesis in SR-1 dose-ranging study; type: in vivo, African green monkey
Method: as §3, §4

[19] = IV, 3 mg/kg, male cynomolgus monkeys
[20] = SC, 3 mg/kg, male cynomolgus monkeys

T1 sequence (P10721 26-976): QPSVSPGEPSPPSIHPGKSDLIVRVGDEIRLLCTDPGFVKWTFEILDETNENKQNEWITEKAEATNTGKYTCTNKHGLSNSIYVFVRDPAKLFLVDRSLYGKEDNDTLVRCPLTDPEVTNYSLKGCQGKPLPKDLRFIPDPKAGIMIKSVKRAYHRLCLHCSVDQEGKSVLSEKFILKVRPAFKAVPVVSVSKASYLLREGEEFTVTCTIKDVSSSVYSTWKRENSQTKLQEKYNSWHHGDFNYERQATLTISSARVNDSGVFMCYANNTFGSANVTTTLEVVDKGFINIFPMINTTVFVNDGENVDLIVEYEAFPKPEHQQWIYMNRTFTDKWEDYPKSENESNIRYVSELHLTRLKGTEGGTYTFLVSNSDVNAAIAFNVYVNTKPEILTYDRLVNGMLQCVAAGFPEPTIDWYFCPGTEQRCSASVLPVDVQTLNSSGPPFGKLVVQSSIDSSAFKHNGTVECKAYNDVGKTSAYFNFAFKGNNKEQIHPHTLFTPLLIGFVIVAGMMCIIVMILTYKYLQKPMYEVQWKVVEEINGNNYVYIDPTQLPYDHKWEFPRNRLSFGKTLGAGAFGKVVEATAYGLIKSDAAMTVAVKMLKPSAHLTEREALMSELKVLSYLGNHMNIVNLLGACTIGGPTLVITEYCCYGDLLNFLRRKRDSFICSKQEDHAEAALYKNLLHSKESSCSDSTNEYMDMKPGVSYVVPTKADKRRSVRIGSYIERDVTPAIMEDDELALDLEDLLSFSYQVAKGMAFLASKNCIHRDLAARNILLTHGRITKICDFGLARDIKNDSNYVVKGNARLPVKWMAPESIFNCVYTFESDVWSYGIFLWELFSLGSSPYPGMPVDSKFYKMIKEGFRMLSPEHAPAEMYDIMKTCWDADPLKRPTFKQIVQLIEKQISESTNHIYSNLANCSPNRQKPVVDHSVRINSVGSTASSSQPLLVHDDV
Chain of c-Kit dimer (P10721 26-509 limits assumed): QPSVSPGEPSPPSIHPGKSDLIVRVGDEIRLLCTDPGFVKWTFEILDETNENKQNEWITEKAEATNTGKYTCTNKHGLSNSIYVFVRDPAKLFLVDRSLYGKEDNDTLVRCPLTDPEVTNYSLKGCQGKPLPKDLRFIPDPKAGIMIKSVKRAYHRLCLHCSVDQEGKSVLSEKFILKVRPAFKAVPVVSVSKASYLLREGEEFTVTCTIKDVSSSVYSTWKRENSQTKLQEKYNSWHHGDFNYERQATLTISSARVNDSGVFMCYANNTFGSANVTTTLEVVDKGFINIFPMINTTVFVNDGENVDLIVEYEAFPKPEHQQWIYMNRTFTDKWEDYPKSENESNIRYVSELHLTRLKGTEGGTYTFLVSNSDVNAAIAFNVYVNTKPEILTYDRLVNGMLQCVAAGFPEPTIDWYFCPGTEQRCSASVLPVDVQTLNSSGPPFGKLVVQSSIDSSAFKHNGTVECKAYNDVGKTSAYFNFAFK

## hSR-1 aIgG1: Humanized anti-c-Kit aglycosylated IgG1 antibody; kappa light chain SEQ ID NO: 2, heavy chain SEQ ID NO: 4
[1]
  exposure compared within group: equal best in group PK
[2]
  complement dependent cytotoxic cell death: no complement dependent cytotoxic cell death
[2]; predicted from lack of FcR binding
  ADCC activity: no ADCC activity
[3]
  projected minimal effective dose in human: < 0.1 mg/kg
[4]
  binding to receptor dimer / membrane c-Kit versus monomer / soluble c-Kit: higher affinity to the membrane c-Kit compared to soluble c-kit; also recorded: high affinity to the receptor dimer versus monomer
[5]
  non-specific FcR binding: no detectable
[6]
  antagonism of SCF: highly potent neutral antagonist
[6]; proximal and distal read-outs
  agonism of c-Kit: no agonism
[7]; 0.3 mg/kg once weekly
  Fold UT-7 IC50 (Ctrough): >200 fold
[7]; 1.0 mg/kg once weekly
  Fold UT-7 IC50 (Ctrough): >2000 fold
  Inhibition of activated skin mast cells: >95%
[7]; 3.0 mg/kg once weekly
  Fold UT-7 IC50 (Ctrough): >7000 fold
  Inhibition of activated skin mast cells: >95%
[7]
  minimal effective dose in the wound PD model: < 0.3 mg/kg
[8]
  inhibition of SCF-mediated c-Kit phosphorylation and internalization: potently inhibited
[8]; antibody alone
  agonism in c-Kit receptor proximal phosphorylation read-out: no evidence of agonism
[9]; 0.3 mg/kg once weekly, day 14
  Depletion of basal colon mast cells: no efficacy; also recorded: No effect
[9]; 1.0 mg/kg once weekly, day 14
  Depletion of basal colon mast cells: >65%
[9]; 3.0 mg/kg once weekly, day 14
  Depletion of basal colon mast cells: >95%
[10]
  survival relative to baseline: inhibit survival below baseline
[10]; 1.0 ug/mL
  neutralization of the synergistic effect of SCF on GM-CSF derived colony formation: neutralization
[10]; up to 10 ug/mL
  intrinsic agonistic survival activity: no intrinsic agonistic survival activity
[11]; [19]
  AUC0-tlast: 9710 µg·h/mL
  C0: 103 µg/mL
[11]; IV, 3 mg/kg, calculated based on AUC0-tlast
  CL: ≦0.309 mL/hr/kg
[11]; [20]
  AUC0-tlast: 7970 µg·h/mL
  Cmax: 36.4 µg/mL
  Tmax: 72 h
[11]; single IV or SC 3 mg/kg
  PK time profile: non-linear PK
[12]
  abnormalities on in vivo dosing: No unexpected abnormalities
[13]
  homotypic mast cell aggregation / clustering: no ability to mediate homotypic mast cell aggregation
  inhibition of SCF-dependent mast cell survival: inhibited
[13]; FIG. 3
  c-Kit receptor phosphorylation mediated by the antibody: did not mediate
[13]; antibody alone
  survival signal conferred to mast cells (agonist activity): conferred no survival signal

B1: SR-1: Murine anti-human c-Kit antibody; light chain SEQ ID NO: 8, muIgG2a heavy chain SEQ ID NO: 10 (antibody, listed as Homo sapiens)
heavy: MGWSCIILFLVATATGVHSQVQLQQPGAELVKPGASVKMSCKASGYTFTSYNMHWVKQTPGQGLEWIGVIYSGNGDTSYNQKFKGKATLTADKSSSTAYMQINSLTSEDSAVYYCARERDTRFGNWGQGTLVTVSAAKTTAPSVYPLAPVCGDTTGSSVTLGCLVKGYFPEPVTLTWNSGSLSSGVHTFPAVLQSDLYTLSSSVTVTSSTWPSQSITCNVAHPASSTKVDKKIEPRGPTIKPCPPCKCPAPNLLGGPSVFIFPPKIKDVLMISLSPIVTCVVVDVSEDDPDVQISWFVNNVEVHTAQTQTHREDYNSTLRVVSALPIQHQDWMSGKEFKCKVNNKDLPAPIERTISKPKGSVRAPQVYVLPPPEEEMTKKQVTLTCMVTDFMPEDIYVEWTNNGKTELNYKNTEPVLDSDGSYFMYSKLRVEKKNWVERNSYSCSVVHEGLHNHHTTKSFSRTPGK
light: METDTLLLWVLLLWVPGSTGNIVLTQSPASLAVSLGLRATISCRASESVDIYGNSFMHWYQQKPGQPPKLLIYLASNLESGVPARFSGSGSRTDFTLTIDPVEADDAATYYCQQNNEDPYTFGGGTKLEIKRADAAPTVSIFPPSSEQLTSGGASVVCFLNNFYPKDINVKWKIDGSERQNGVLNSWTDQDSKDSTYSMSSTLTLTKDEYERHNSYTCEATHKTSTSPIVKSFNRNEC
[14]; 10 mg/Kg cohort
  exposures as fold the UT-7 IC50: > 8000 fold
  pigmentation of newly regrown hair: No effect
[14]; 30 mg/Kg dose
  pigmentation of newly regrown hair: inhibition of hair pigmentation to variable degrees
[14]; 3-30 mpk once weekly for 4 weeks, any cohort
  normal hair color of the coat: not visibly affected
[14]; monkey, in vivo
  exposure (fold the cell IC50) required before qualitative impacts on pigmentation of newly regrown hair: > 8000 fold
[14]; once weekly for 4 weeks
  no effect dose on hair pigmentation: 10 to 30 mg/kg
[15]
  functional potency at monkey c-Kit in CFU assay: inhibition
[4]; Biacore
  affinity for c-Kit dimer compared to soluble c-Kit extra-cellular domain monomer: 1000 fold
[7]; 0.3 mpk dose
  inhibition of wound activated expansion of mast cells: partial inhibition
[7]; 1 and 3 mg/Kg cohorts
  inhibition of wound activated expansion of mast cells: maximal efficacy
[7]; FIG. 1
  effect on mast cells in wound activated model: inhibits mast cells
[7]; monkey, in vivo
  sustained Ctrough exposure (fold the IC50) required for maximal inhibition of wound-expanded mast cells: > 7 fold
[7]
  minimal effective dose in the wound PD model: < 0.3 mg/kg
[9]; 3.0 mg/Kg once weekly, basal lung mast cell depletion
  Ctrough PK level as fold the UT-7 cellular IC50: > 200 fold
[9]; 3.0 mg/Kg once weekly, day 28
  depletion of basal lung mast cells: depletion of basal lung mast cells was observed
[9]; 3 mg/Kg to 30 mg/Kg once weekly, after 2 doses by day 14
  depletion of basal colon mast cells, time course: maximally depleted
[9]; day 14
  Ctrough as fold the cell IC50 at depletion of basal mast cells: > 800 fold
[10]; 1.0 ug/mL
  functional potency at human c-Kit in CFU assay: inhibition
[16]
  intrinsic activity at c-Kit: some agonist-like activity
[17]; 0.3 mg/Kg once weekly
  effect on spermatogenesis at lowest dose: less than the maximal effect; also recorded: sub-maximal effect
  exposure as fold the UT-7 IC50: 7 fold and > 7 fold
[17]; 0.3-30 mg/Kg
  inhibition of spermatogenesis: dose-dependent inhibition
[17]; 9 months, all dosed animals
  recovery of spermatogenesis: Normal spermatogenesis
[18]; 30 mg/Kg once weekly over 4 weeks
  exposure levels as fold the UT-7 IC50: > 70,000 fold
[18]; 3 to 30 mg/Kg once weekly for 4 weeks, versus control and baseline
  impact on hematological parameters: No significant impact
[18]; 4 weeks after dosing started
  RBCs: non-significant decreases
[18]; bone marrow
  CD117 positive hematopoietic stem cells: no depletion
[18]; monkey, in vivo
  bone marrow histopathological analysis: no difference between drug treated and control cohorts
